The RNAGym collection of RNA variant scans (doi:10.1073/pnas.2313332121)

B1: TPR t1 (parent)
chain: GACCAAUCUGCCCUCAGAGCUCGAGAACAUCUUCGGAUGCAGAGGAGGCAGGCUUCGGUGGCGCGAUAGCGCCAACGUCCUCAACCUCCAAUGCAUCCCACCACAUGAUGAUGCCUGAAGAGCCUUGGUUUUUUG

Variants of: B1
Experiment: polymerase ribozyme fitness, log enrichment relative to wild type (log ratio); higher = more active; in vitro selection for triplet polymerase activity
Method in brief: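 Frozen incubation at −7 °C formed the core of a single, triplicate in vitro selection round applied to PCR-built, transcribed mutant libraries of each subunit of a heterodimeric triplet polymerase ribozyme. Extended constructs were gel-excised, captured with streptavidin beads and amplified by RT-PCR, and input and output libraries were Illumina-sequenced with a filter of ≥10 input reads and ≥1 read per output. Fitness is the logarithm of genotype enrichment relative to wild-type enrichment, with inverse-variance-weighted replicate averaging, and the logarithm is base 2.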

Variant | polymerase ribozyme fitness (log ratio)
C4G C123G G128C | -0.896
C4G C34A C72G | -5.9
A5G C40A C72U G110U | -3.65
C4G C15A A16U C53A C72U U78C C115U | -3.84
C4U G36U | -1.82
A5C G63C C94A G113C G122U | -4.6
A5G C89G | -1.15
C4G A50C C115U | -4.34
C4G A66G C115A | -2.94
C4U A18U U55G C86U | -2.79
C4U A6G G39A C72A C85A A90G C114U | -3.29
A5C C11A A50G C53A C99A C102G C104A C115U | -7.15
A5C U7G U54A G110C | -4.81
A5G C56A A74G C97U C123A | 0.643
A5G C20U U38G G110U | -4.64
C4G C40U A66C C86G C97A C115G | -6.24
A5G C13A A46U G63A U133A | -2.84
C4A C124A | -0.256
A5C A84U | -1.12
A5G A27G G45C C97U G120A | -2.95
C4A U9A A43U C56A A83C U126A | -4.76
C4U A43U C88U U92G | -2.04
C4U C11A G61U C98U G113A U126G | -5.59
A5G A26U | -2.44

Variant | polymerase ribozyme fitness (log ratio)
C4G G39U A46C C72A U87G C88G | -3.06
C4A G36A | -2.02
C4A C80A | -5.24
C3U U130G | -0.624
C4U G52A C62U C82G G120C | -0.476
C4U C56A C101A G117C | -5.92
C4G G36A A43C G45U C124G | -4.47
C4U G69U G93U | -1.17
A5G A46U C56U C73G G122A C123A | -3
C4G A27U G45A G61A C86A C97A G117A | -6.02
A5C C12G C49A C56A A83C | -1.46
C4A A27G A75G G120U | -4.55
C4U C15A C82G | -3.56
A5C C13U G60U | -0.844
C4G C13U U33G G39U G44A C82U U112A | -4.58
C3U U7G C20U U21G C73U G110U C124G | -4.5
C4U C8G G47C C123A | -0.0311
A5G C64U C85U | -1.64
A5C G71A U132A | -1.18
C4G G57C C89A C123A | -3.43
C4U C70A C85G C86U | -3.72
C4G C15U | -2.66
C4G U87G | -1.54
A5C C124A U126A U131A | 0.939

Variant | polymerase ribozyme fitness (log ratio)
C4U A18C A29G C56A | -4.17
A5C U78C G127C U129C | -2.19
C3U G122A | -1.01
C4G C13U U21C C62G G120U | -2.48
C4U C49U A66G G69C U78A | -5.15
A5C C11G G36U G44A C56A U112A | -1.22
A5C C123G | 1.35
C4G G10C C115U | -3.25
C3U U38A G69U U109A | -2.41
C4U C53U U125A | -1.45
C4U A27C U54C C82A | -3.17
C4A G52C A74C | -2.47
A5C C8G U33G C97U | -5.64
C3U G69U C94G C114A U125A | -3.19
C4A A46U C88U U92A U116C | -6.04
C4G C80U C89G | -4.61
A5C C89G C114G U126C U131A | -5.03
C4U C53G G57U G110A | -1.58
C4G A37U | -1.82
C4U C62G U112A | -1.6
C4G U32A G71U A121C U129A | -4.53
C4A C8G G36U G45U G69C U78A C114U | -5.25
A5C C11U G122A | 0.875
A5G C124A | 1.03

Variant | polymerase ribozyme fitness (log ratio)
C4A G93A G120C U126G | -1.92
C3U G120C | 0.705
C4A G48U G120U | -3.84
C4A C56G C102U | -4
C3U U9A A27G G42U A100U U133A | -3.45
A5C A43G C53U G63C G113C | -3.6
C3U G113C | -2.47
C4G U78C C88U C94G C124U | -2.42
C4G U106C C115G | -4.76
C3U U7A A37C C98U | -2.2
C3U U96A | -1.12
C3U G48U U54G G120C | 0.141
C4G A5G C53A C89A G113U C114U G122U U129G | -4.07
C4A U7A G110U | -2.4
C4G C8A C20G A111C C123G | -4.96
C3U U92G G117U A119U | -5.83
C4G G135U | -2.5
C4A C13A A27C C123G | -3.14
C4A G120U | -1.6
A5C A43U U78C G93C | -4.85
C3U G110C | -4.17
C4A C72G G77A G120A | -1.74
A5C C40U U67C C104G C123G G128A | -6.57
C4G C15U U96A G127C | -2.26

Variant | polymerase ribozyme fitness (log ratio)
C4U A27U C72U | -2.49
C3U G69U C98A G113A | -1.77
A5C G47A U59A A100C U106C | -4.2
A5C G52U | -2.8
A5C G52A | -0.884
A5C A26U G36A C88U | -6.38
C4U C72A | -0.193
A5C G58A G60C | -0.634
A5C A18C | -2.78
C4U U130A | -1.49
C4A A46U | -2.61
C4A A46C | -3.07
C3U G69U G113C | -1.33
A5C C56G C98A A121C | -3.33
A5C C8U A16U G45U G63A | -2.38
C3U U9G G19U G58C | -3.13
A5C U7C G63U C94G G113C A118C | -6.82
A5C C12A A27U | -4.25
C4U C13A A46C A50G C72U | -3.05
C4U A68U A100U G117U | -5.92
A5C C11U A43U U59C G60A | -4.12
C3U G60A G77U G117C | -3.58
C4A G51U C70A A84C G113U C114U G128A | -6.15
A5C C88G G127A | -2.6

Variant | polymerase ribozyme fitness (log ratio)
A5G C13U C98U G128U | -3.14
C4G U9G A41G U96C A111C U116A C123G | -1.71
C4A G61C | -3.08
C4A G69U A74G A90U U106A G117C | -4.9
A5C C104U | -1.05
A5C C12G C49A A83C | -0.122
C4G C72U | -1.37
A5G A41C | -0.911
C3U U21A A41G G48U C101G C124G | -1.96
C3U G77A A121U | 2.03
C4G G45A | -2.31
C4U U14A C73U | -4.13
C4U C11A A50C C85U U112C | -1.65
C4U C86U C101G | -1.82
C3U U14G A26U G60U C123A | -4.1
C3U G51U C80U | -2.32
C4G A111G | -1.57
A5G C40U G69U A100G | -1.21
C4U G44U C76A G77U A91C G120A | -2.7
C4G C12A C40A C72U G77U | -3.43
A5G A37G C53U A105G U112G U125G G135U | -5.89
A5C G10A C86A | -0.155
C4A A27U | -3.57
A5C A27G G63C A121G | 0.00315

Variant | polymerase ribozyme fitness (log ratio)
A5C C70G | -2.95
C4U U7A C11A | -0.665
A5C G42U G48C G69U | -0.971
A5C A16G C20U A43G A121G | -0.652
C3U G44C C114A A119U G122C | -3.33
C4A C73A U81A | -3.04
C4G A37G C53U A111C | -1.68
C4U G60U C114U | -3.78
C4G C11G G39A | -1.72
C3U G57A C72U | -0.755
A5C C11U C40U G48U G60U U87A A111C | -4.98
A5C U9C C28G C56U G120A | -1.71
C4U C72G C94G G113A G122U | -3.87
C4U C85U | -1.63
C4G A46U C53A C72A C86A | -2.23
C4U C49U C56G C114A G127A | -3.57
A5C C56A C80A | -3.29
A5G G19A C72U U87A G117U | -4.71
C4U C49U C85U C89G | -2.63
A5G C64U | 0.17
C4G A27G A29G | -5.02
C4A C88A | -1.56
C4A C88U | -1.68
